Reference: patent US20200171136A1 (SUMITOMO DAINIPPON PHARMA, published 2020)
Where two headings read alike, the source gives them in different places.

Legend:
Assay in all cases: cell-based or functional assay
[1] = molecular target: T1, Endoplasmic reticulum aminopeptidase 1 (ERAP1) (UniProt Q9NZ08 1-941, limits assumed)
[2] = molecular target: T1, Endoplasmic reticulum aminopeptidase 1 …; remark: listed apart in the source
[3] = molecular target: T1, Endoplasmic reticulum aminopeptidase 1 …; remark: listed apart in the source
[4] = molecular target: T1, Endoplasmic reticulum aminopeptidase 1 …; remark: listed apart in the source
[5] = molecular target: T1, Endoplasmic reticulum aminopeptidase 1 …; remark: listed apart in the source
[6] = molecular target: T1, Endoplasmic reticulum aminopeptidase 1 …; remark: listed apart in the source

T1 sequence (Q9NZ08 whole entry): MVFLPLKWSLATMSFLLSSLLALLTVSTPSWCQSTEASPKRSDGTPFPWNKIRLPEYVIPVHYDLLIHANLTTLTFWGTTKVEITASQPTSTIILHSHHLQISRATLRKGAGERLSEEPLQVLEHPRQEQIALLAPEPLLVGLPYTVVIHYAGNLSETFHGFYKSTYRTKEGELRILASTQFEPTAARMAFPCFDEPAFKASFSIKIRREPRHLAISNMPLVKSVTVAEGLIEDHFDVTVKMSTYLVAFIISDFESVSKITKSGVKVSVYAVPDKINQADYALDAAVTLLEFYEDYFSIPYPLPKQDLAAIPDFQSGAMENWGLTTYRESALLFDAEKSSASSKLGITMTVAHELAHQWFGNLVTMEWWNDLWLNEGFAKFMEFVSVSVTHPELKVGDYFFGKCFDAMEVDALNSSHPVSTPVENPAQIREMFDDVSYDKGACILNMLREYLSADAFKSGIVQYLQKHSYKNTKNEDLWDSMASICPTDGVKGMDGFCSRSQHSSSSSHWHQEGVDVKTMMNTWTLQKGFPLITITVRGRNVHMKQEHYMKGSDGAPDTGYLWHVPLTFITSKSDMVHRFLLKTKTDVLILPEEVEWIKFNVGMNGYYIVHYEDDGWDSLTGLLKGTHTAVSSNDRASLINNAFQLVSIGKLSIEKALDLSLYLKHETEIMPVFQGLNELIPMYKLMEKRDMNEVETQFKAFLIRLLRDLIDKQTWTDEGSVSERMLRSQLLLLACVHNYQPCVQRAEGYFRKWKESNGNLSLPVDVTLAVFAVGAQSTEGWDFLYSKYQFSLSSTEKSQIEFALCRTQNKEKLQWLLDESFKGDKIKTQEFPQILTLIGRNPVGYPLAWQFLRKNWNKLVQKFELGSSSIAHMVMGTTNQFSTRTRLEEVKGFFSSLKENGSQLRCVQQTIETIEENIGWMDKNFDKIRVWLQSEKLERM

Binder: CRGLYDGMEHL [peptide CRGLYDGMEHL (SEQ ID NO: 174)]
- formation rate of … (SEQ ID NO: 19)(%) [1]: 0%

Binder: CNGLYDGMEHL [peptide CNGLYDGMEHL (SEQ ID NO: 175)]
- formation rate of … (SEQ ID NO: 19)(%) [1]: 82.2%

Binder: CDGLYDGMEHL [peptide CDGLYDGMEHL (SEQ ID NO: 176)]
- formation rate of … (SEQ ID NO: 19)(%) [1]: 25%

Binder: CSGLYDGMEHL [peptide CSGLYDGMEHL (SEQ ID NO: 177)]
- formation rate of … (SEQ ID NO: 19)(%) [1]: 1.1%

Binder: QCGLYDGMEHL [peptide QCGLYDGMEHL (SEQ ID NO: 178)]
- formation rate of … (SEQ ID NO: 19)(%) [2]: 3.6%

Binder: PCGLYDGMEHL [peptide PCGLYDGMEHL (SEQ ID NO: 179)]
- formation rate of … (SEQ ID NO: 19)(%) [2]: 19.2%

Binder: SCGLYDGMEHL [peptide SCGLYDGMEHL (SEQ ID NO: 180)]
- formation rate of … (SEQ ID NO: 19)(%) [2]: 22.2%

Binder: TCGLYDGMEHL [peptide TCGLYDGMEHL (SEQ ID NO: 181)]
- formation rate of … (SEQ ID NO: 19)(%) [2]: 7.3%

Binder: WCGLYDGMEHL [peptide WCGLYDGMEHL (SEQ ID NO: 182)]
- formation rate of … (SEQ ID NO: 19)(%) [2]: 0%

Binder: YCGLYDGMEHL [peptide YCGLYDGMEHL (SEQ ID NO: 183)]
- formation rate of … (SEQ ID NO: 19)(%) [2]: 5.7%

Binder: VCGLYDGMEHL [peptide VCGLYDGMEHL (SEQ ID NO: 184)]
- formation rate of … (SEQ ID NO: 19)(%) [2]: 2.4%

Binder: ACGLYDGMEHL [peptide ACGLYDGMEHL (SEQ ID NO: 185)]
- formation rate of … (SEQ ID NO: 19)(%) [2]: 5.2%

Binder: RCGLYDGMEHL [peptide RCGLYDGMEHL (SEQ ID NO: 186)]
- formation rate of … (SEQ ID NO: 19)(%) [2]: 0%

Binder: NCGLYDGMEHL [peptide NCGLYDGMEHL (SEQ ID NO: 187)]
- formation rate of … (SEQ ID NO: 19)(%) [3]: 18.2%

Binder: DCGLYDGMEHL [peptide DCGLYDGMEHL (SEQ ID NO: 188)]
- formation rate of … (SEQ ID NO: 19)(%) [3]: 3.2%

Binder: ECGLYDGMEHL [peptide ECGLYDGMEHL (SEQ ID NO: 189)]
- formation rate of … (SEQ ID NO: 19)(%) [3]: 2.9%

Binder: GCGLYDGMEHL [peptide GCGLYDGMEHL (SEQ ID NO: 190)]
- formation rate of … (SEQ ID NO: 19)(%) [3]: 10.4%

Binder: HCGLYDGMEHL [peptide HCGLYDGMEHL (SEQ ID NO: 191)]
- formation rate of … (SEQ ID NO: 19)(%) [3]: 0%

Binder: ICGLYDGMEHL [peptide ICGLYDGMEHL (SEQ ID NO: 192)]
- formation rate of … (SEQ ID NO: 19)(%) [3]: 0%

Binder: LCGLYDGMEHL [peptide LCGLYDGMEHL (SEQ ID NO: 193)]
- formation rate of … (SEQ ID NO: 19)(%) [3]: 0%

Binder: KCGLYDGMEHL [peptide KCGLYDGMEHL (SEQ ID NO: 194)]
- formation rate of … (SEQ ID NO: 19)(%) [3]: 0%

Binder: MCGLYDGMEHL [peptide MCGLYDGMEHL (SEQ ID NO: 195)]
- formation rate of … (SEQ ID NO: 19)(%) [3]: 5.8%

Binder: FCGLYDGMEHL [peptide FCGLYDGMEHL (SEQ ID NO: 196)]
- formation rate of … (SEQ ID NO: 19)(%) [3]: 17.6%

Binder: ACVLQELNVTV [peptide ACVLQELNVTV (SEQ ID NO: 143)]
- formation rate of … (SEQ ID NO: 43)(%) [4]: 1.8%

Binder: GCVLQELNVTV [peptide GCVLQELNVTV (SEQ ID NO: 149)]
- formation rate of … (SEQ ID NO: 43)(%) [4]: 1.1%

Binder: SCVLQELNVTV [peptide SCVLQELNVTV (SEQ ID NO: 157)]
- formation rate of … (SEQ ID NO: 43)(%) [4]: 1.3%

Binder: YCVLQELNVTV [peptide YCVLQELNVTV (SEQ ID NO: 160)]
- formation rate of … (SEQ ID NO: 43)(%) [4]: 0.7%

Binder: CVLQELNVTV [peptide CVLQELNVTV (SEQ ID NO: 99)]
- formation rate (%) 1 hr later [5]: 83.4%
- formation rate (%) 2 hr later [5]: 85.6%
- formation rate (%) 4 hr later [5]: 78.8%
- formation rate (%) 8 hr later [5]: 83.9%

Binder: CAVLQELNVTV [peptide CAVLQELNVTV (SEQ ID NO: 92)]
- formation rate (%) 1 hr later [5]: 46.1%
- formation rate (%) 2 hr later [5]: 49.9%
- formation rate (%) 4 hr later [5]: 51.3%
- formation rate (%) 8 hr later [5]: 53.5%

Binder: CLVLQELNVTV [peptide CLVLQELNVTV (SEQ ID NO: 93)]
- formation rate (%) 1 hr later [5]: 31.1%
- formation rate (%) 2 hr later [5]: 36.9%
- formation rate (%) 4 hr later [5]: 38.1%
- formation rate (%) 8 hr later [5]: 36.1%

Binder: CMVLQELNVTV [peptide CMVLQELNVTV (SEQ ID NO: 94)]
- formation rate (%) 1 hr later [5]: 28.7%
- formation rate (%) 2 hr later [5]: 34.5%
- formation rate (%) 4 hr later [5]: 36.5%
- formation rate (%) 8 hr later [5]: 36.8%

Binder: H-CGLYDGMEHL-OH [peptide CGLYDGMEHL (SEQ ID NO: 98)]
- formation rate (%) 1 hr later [5]: 95.1%
- formation rate (%) 2 hr later [5]: 106%
- formation rate (%) 4 hr later [5]: 100%
- formation rate (%) 8 hr later [5]: 101%

Binder: CAGLYDGMEHL [peptide CAGLYDGMEHL (SEQ ID NO: 89)]
- formation rate (%) 1 hr later [5]: 87.8%
- formation rate (%) 2 hr later [5]: 99.4%
- formation rate (%) 4 hr later [5]: 103%
- formation rate (%) 8 hr later [5]: 97.5%

Binder: CLGLYDGMEHL [peptide CLGLYDGMEHL (SEQ ID NO: 90)]
- formation rate (%) 1 hr later [5]: 58.3%
- formation rate (%) 2 hr later [5]: 94.9%
- formation rate (%) 4 hr later [5]: 88.4%
- formation rate (%) 8 hr later [5]: 88.3%

Binder: CMGLYDGMEHL [peptide CMGLYDGMEHL (SEQ ID NO: 91)]
- formation rate (%) 1 hr later [5]: 90.6%
- formation rate (%) 2 hr later [5]: 103%
- formation rate (%) 4 hr later [5]: 96%
- formation rate (%) 8 hr later [5]: 101%

Binder: CQGLYDGMEHL [peptide CQGLYDGMEHL (SEQ ID NO: 162)]
- formation rate of … (SEQ ID NO: 19)(%) [6]: 56.9%

Binder: CEGLYDGMEHL [peptide CEGLYDGMEHL (SEQ ID NO: 163)]
- formation rate of … (SEQ ID NO: 19)(%) [6]: 6.2%

Binder: CGGLYDGMEHL [peptide CGGLYDGMEHL (SEQ ID NO: 164)]
- formation rate of … (SEQ ID NO: 19)(%) [6]: 0%

Binder: CHGLYDGMEHL [peptide CHGLYDGMEHL (SEQ ID NO: 165)]
- formation rate of … (SEQ ID NO: 19)(%) [6]: 0%

Binder: CIGLYDGMEHL [peptide CIGLYDGMEHL (SEQ ID NO: 166)]
- formation rate of … (SEQ ID NO: 19)(%) [6]: 0.4%

Binder: CKGLYDGMEHL [peptide CKGLYDGMEHL (SEQ ID NO: 167)]
- formation rate of … (SEQ ID NO: 19)(%) [6]: 0%

Binder: CFGLYDGMEHL [peptide CFGLYDGMEHL (SEQ ID NO: 168)]
- formation rate of … (SEQ ID NO: 19)(%) [6]: 0%

Binder: CPGLYDGMEHL [peptide CPGLYDGMEHL (SEQ ID NO: 169)]
- formation rate of … (SEQ ID NO: 19)(%) [6]: 0%

Binder: CTGLYDGMEHL [peptide CTGLYDGMEHL (SEQ ID NO: 170)]
- formation rate of … (SEQ ID NO: 19)(%) [1]: 89.4%

Binder: CWGLYDGMEHL [peptide CWGLYDGMEHL (SEQ ID NO: 171)]
- formation rate of … (SEQ ID NO: 19)(%) [1]: 0%

Binder: CYGLYDGMEHL [peptide CYGLYDGMEHL (SEQ ID NO: 172)]
- formation rate of … (SEQ ID NO: 19)(%) [1]: 0%

Binder: CVGLYDGMEHL [peptide CVGLYDGMEHL (SEQ ID NO: 173)]
- formation rate of … (SEQ ID NO: 19)(%) [1]: 0%
